Data published in the supplement of paper PMC11136658.

Test system: peptide library, one residue held at a place counted from the Y acceptor
Assay: relative phosphorylation of the sub-library (ratio to the mean residue at this position); higher = residue favoured
Summary of the method: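 Biotinylated Tyr-centred peptide library mixtures, each fixing one residue at one position from −5 to +5, were incubated with purified recombinant kinases in 384-well plates for 90 min with 50 μM ATP plus γ-32P-ATP. Streptavidin membranes captured the peptides, which were rinsed and quantified by phosphorimaging and ImageQuant. At each position, intensities were divided by the sum of the 18 randomized residues (16 for the Ser/Thr-free library) and multiplied by that number. Each value is phosphorylation relative to the mean randomized residue.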

ALK, construct: aa1058-end, human, sequence (Q9UM73 1058-1620, looked up): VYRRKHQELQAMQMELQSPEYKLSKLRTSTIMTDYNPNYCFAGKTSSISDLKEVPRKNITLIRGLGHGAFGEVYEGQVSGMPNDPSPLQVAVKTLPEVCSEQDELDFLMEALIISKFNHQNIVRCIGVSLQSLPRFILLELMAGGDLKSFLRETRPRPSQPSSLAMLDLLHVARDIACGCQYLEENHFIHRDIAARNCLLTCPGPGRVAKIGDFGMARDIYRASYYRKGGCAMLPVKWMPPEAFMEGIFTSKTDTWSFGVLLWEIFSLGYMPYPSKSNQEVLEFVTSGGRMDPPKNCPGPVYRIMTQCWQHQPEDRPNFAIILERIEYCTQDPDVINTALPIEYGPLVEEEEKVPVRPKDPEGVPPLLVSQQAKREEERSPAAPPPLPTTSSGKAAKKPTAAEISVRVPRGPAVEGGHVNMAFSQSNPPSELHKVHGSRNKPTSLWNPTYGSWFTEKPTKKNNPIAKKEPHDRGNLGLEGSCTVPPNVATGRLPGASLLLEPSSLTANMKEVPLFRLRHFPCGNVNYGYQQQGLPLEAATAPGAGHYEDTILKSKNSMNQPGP

Substance: ALK, construct: aa1058-end, human (from UniProt Q9UM73)
- relative phosphorylation (A fixed, at +1): 1.39
- relative phosphorylation (A fixed, at +2): 0.79
- relative phosphorylation (A fixed, at +3): 0.525
- relative phosphorylation (A fixed, at +4): 0.758
- relative phosphorylation (A fixed, at +5): 0.82
- relative phosphorylation (A fixed, at -1): 0.976
- relative phosphorylation (A fixed, at -2): 1.09
- relative phosphorylation (A fixed, at -3): 0.931
- relative phosphorylation (A fixed, at -4): 1.23
- relative phosphorylation (A fixed, at -5): 1.06
- relative phosphorylation (D fixed, at +1): 0.468
- relative phosphorylation (D fixed, at +2): 0.286
- relative phosphorylation (D fixed, at +3): 0.207
- relative phosphorylation (D fixed, at +4): 0.721
- relative phosphorylation (D fixed, at +5): 0.44
- relative phosphorylation (D fixed, at -1): 1.42
- relative phosphorylation (D fixed, at -2): 0.92
- relative phosphorylation (D fixed, at -3): 1.09
- relative phosphorylation (D fixed, at -4): 1.01
- relative phosphorylation (D fixed, at -5): 1.01
- relative phosphorylation (E fixed, at +1): 1.42
- relative phosphorylation (E fixed, at +2): 0.713
- relative phosphorylation (E fixed, at +3): 0.206
- relative phosphorylation (E fixed, at +4): 0.871
- relative phosphorylation (E fixed, at +5): 0.407
- relative phosphorylation (E fixed, at -1): 0.955
- relative phosphorylation (E fixed, at -2): 1.02
- relative phosphorylation (E fixed, at -3): 1.42
- relative phosphorylation (E fixed, at -4): 1.22
- relative phosphorylation (E fixed, at -5): 0.887
- relative phosphorylation (F fixed, at +1): 1.04
- relative phosphorylation (F fixed, at +2): 1.16
- relative phosphorylation (F fixed, at +3): 1.55
- relative phosphorylation (F fixed, at +4): 1.34
- relative phosphorylation (F fixed, at +5): 2.19
- relative phosphorylation (F fixed, at -1): 1.08
- relative phosphorylation (F fixed, at -2): 0.732
- relative phosphorylation (F fixed, at -3): 1.05
- relative phosphorylation (F fixed, at -4): 1.02
- relative phosphorylation (F fixed, at -5): 1
- relative phosphorylation (G fixed, at +1): 0.495
- relative phosphorylation (G fixed, at +2): 0.403
- relative phosphorylation (G fixed, at +3): 0.445
- relative phosphorylation (G fixed, at +4): 0.805
- relative phosphorylation (G fixed, at +5): 0.774
- relative phosphorylation (G fixed, at -1): 0.349
- relative phosphorylation (G fixed, at -2): 1.06
- relative phosphorylation (G fixed, at -3): 1.06
- relative phosphorylation (G fixed, at -4): 1.27
- relative phosphorylation (G fixed, at -5): 1.15
- relative phosphorylation (H fixed, at +1): 1.15
- relative phosphorylation (H fixed, at +2): 0.762
- relative phosphorylation (H fixed, at +3): 1.14
- relative phosphorylation (H fixed, at +4): 1.17
- relative phosphorylation (H fixed, at +5): 0.806
- relative phosphorylation (H fixed, at -1): 1.02
- relative phosphorylation (H fixed, at -2): 1.18
- relative phosphorylation (H fixed, at -3): 0.992
- relative phosphorylation (H fixed, at -4): 0.88
- relative phosphorylation (H fixed, at -5): 0.985
- relative phosphorylation (I fixed, at +1): 1.59
- relative phosphorylation (I fixed, at +2): 1.17
- relative phosphorylation (I fixed, at +3): 3.08
- relative phosphorylation (I fixed, at +4): 0.994
- relative phosphorylation (I fixed, at +5): 1.43
- relative phosphorylation (I fixed, at -1): 2.22
- relative phosphorylation (I fixed, at -2): 1.08
- relative phosphorylation (I fixed, at -3): 0.683
- relative phosphorylation (I fixed, at -4): 0.817
- relative phosphorylation (I fixed, at -5): 0.925
- relative phosphorylation (K fixed, at +1): 0.398
- relative phosphorylation (K fixed, at +2): 0.982
- relative phosphorylation (K fixed, at +3): 0.401
- relative phosphorylation (K fixed, at +4): 0.984
- relative phosphorylation (K fixed, at +5): 0.661
- relative phosphorylation (K fixed, at -1): 0.353
- relative phosphorylation (K fixed, at -2): 0.998
- relative phosphorylation (K fixed, at -3): 1.04
- relative phosphorylation (K fixed, at -4): 0.956
- relative phosphorylation (K fixed, at -5): 1.15
- relative phosphorylation (L fixed, at +1): 1.24
- relative phosphorylation (L fixed, at +2): 1.44
- relative phosphorylation (L fixed, at +3): 1.22
- relative phosphorylation (L fixed, at +4): 0.906
- relative phosphorylation (L fixed, at +5): 1.55
- relative phosphorylation (L fixed, at -1): 1.64
- relative phosphorylation (L fixed, at -2): 0.915
- relative phosphorylation (L fixed, at -3): 0.81
- relative phosphorylation (L fixed, at -4): 0.954
- relative phosphorylation (L fixed, at -5): 0.983
- relative phosphorylation (M fixed, at +1): 2.11
- relative phosphorylation (M fixed, at +2): 1.42
- relative phosphorylation (M fixed, at +3): 1.78
- relative phosphorylation (M fixed, at +4): 1.16
- relative phosphorylation (M fixed, at +5): 1.38
- relative phosphorylation (M fixed, at -1): 0.903
- relative phosphorylation (M fixed, at -2): 0.871
- relative phosphorylation (M fixed, at -3): 0.901
- relative phosphorylation (M fixed, at -4): 0.918
- relative phosphorylation (M fixed, at -5): 0.977
- relative phosphorylation (N fixed, at +1): 0.472
- relative phosphorylation (N fixed, at +2): 0.837
- relative phosphorylation (N fixed, at +3): 0.496
- relative phosphorylation (N fixed, at +4): 0.855
- relative phosphorylation (N fixed, at +5): 0.697
- relative phosphorylation (N fixed, at -1): 1.31
- relative phosphorylation (N fixed, at -2): 0.952
- relative phosphorylation (N fixed, at -3): 1.2
- relative phosphorylation (N fixed, at -4): 0.882
- relative phosphorylation (N fixed, at -5): 1.09
- relative phosphorylation (P fixed, at +1): 0.296
- relative phosphorylation (P fixed, at +2): 0.934
- relative phosphorylation (P fixed, at +3): 0.476
- relative phosphorylation (P fixed, at +4): 0.939
- relative phosphorylation (P fixed, at +5): 1.54
- relative phosphorylation (P fixed, at -1): 1.06
- relative phosphorylation (P fixed, at -2): 1.11
- relative phosphorylation (P fixed, at -3): 1.1
- relative phosphorylation (P fixed, at -4): 1.29
- relative phosphorylation (P fixed, at -5): 1.21
- relative phosphorylation (Q fixed, at +1): 1.15
- relative phosphorylation (Q fixed, at +2): 0.852
- relative phosphorylation (Q fixed, at +3): 0.414
- relative phosphorylation (Q fixed, at +4): 1.11
- relative phosphorylation (Q fixed, at +5): 0.601
- relative phosphorylation (Q fixed, at -1): 0.669
- relative phosphorylation (Q fixed, at -2): 1.04
- relative phosphorylation (Q fixed, at -3): 0.908
- relative phosphorylation (Q fixed, at -4): 1.09
- relative phosphorylation (Q fixed, at -5): 0.946
- relative phosphorylation (R fixed, at +1): 0.528
- relative phosphorylation (R fixed, at +2): 1.46
- relative phosphorylation (R fixed, at +3): 0.667
- relative phosphorylation (R fixed, at +4): 1.31
- relative phosphorylation (R fixed, at +5): 0.879
- relative phosphorylation (R fixed, at -1): 0.346
- relative phosphorylation (R fixed, at -2): 1.19
- relative phosphorylation (R fixed, at -3): 1.19
- relative phosphorylation (R fixed, at -4): 1.31
- relative phosphorylation (R fixed, at -5): 1.21
- relative phosphorylation (S fixed, at +1): 0.929
- relative phosphorylation (S fixed, at +2): 0.776
- relative phosphorylation (S fixed, at +3): 0.526
- relative phosphorylation (S fixed, at +4): 0.873
- relative phosphorylation (S fixed, at +5): 0.706
- relative phosphorylation (S fixed, at -1): 0.64
- relative phosphorylation (S fixed, at -2): 1.13
- relative phosphorylation (S fixed, at -3): 1.05
- relative phosphorylation (S fixed, at -4): 0.776
- relative phosphorylation (S fixed, at -5): 0.857
- relative phosphorylation (T fixed, at +1): 0.947
- relative phosphorylation (T fixed, at +2): 0.682
- relative phosphorylation (T fixed, at +3): 0.854
- relative phosphorylation (T fixed, at +4): 0.842
- relative phosphorylation (T fixed, at +5): 0.974
- relative phosphorylation (T fixed, at -1): 0.91
- relative phosphorylation (T fixed, at -2): 1.06
- relative phosphorylation (T fixed, at -3): 0.983
- relative phosphorylation (T fixed, at -4): 0.644
- relative phosphorylation (T fixed, at -5): 0.76
- relative phosphorylation (V fixed, at +1): 1.43
- relative phosphorylation (V fixed, at +2): 1.06
- relative phosphorylation (V fixed, at +3): 2.3
- relative phosphorylation (V fixed, at +4): 0.998
- relative phosphorylation (V fixed, at +5): 0.968
- relative phosphorylation (V fixed, at -1): 1.53
- relative phosphorylation (V fixed, at -2): 0.929
- relative phosphorylation (V fixed, at -3): 0.733
- relative phosphorylation (V fixed, at -4): 0.803
- relative phosphorylation (V fixed, at -5): 0.819
- relative phosphorylation (W fixed, at +1): 0.939
- relative phosphorylation (W fixed, at +2): 2.26
- relative phosphorylation (W fixed, at +3): 1.72
- relative phosphorylation (W fixed, at +4): 1.36
- relative phosphorylation (W fixed, at +5): 1.18
- relative phosphorylation (W fixed, at -1): 0.613
- relative phosphorylation (W fixed, at -2): 0.72
- relative phosphorylation (W fixed, at -3): 0.865
- relative phosphorylation (W fixed, at -4): 0.927
- relative phosphorylation (W fixed, at -5): 0.963
- relative phosphorylation (pThr fixed, at +1): 1.14
- relative phosphorylation (pThr fixed, at +2): 0.414
- relative phosphorylation (pThr fixed, at +3): 0.169
- relative phosphorylation (pThr fixed, at +4): 0.406
- relative phosphorylation (pThr fixed, at +5): 0.326
- relative phosphorylation (pThr fixed, at -1): 0.79
- relative phosphorylation (pThr fixed, at -2): 0.836
- relative phosphorylation (pThr fixed, at -3): 0.834
- relative phosphorylation (pThr fixed, at -4): 0.909
- relative phosphorylation (pThr fixed, at -5): 0.952
- relative phosphorylation (pTyr fixed, at +1): 1.35
- relative phosphorylation (pTyr fixed, at +2): 1.01
- relative phosphorylation (pTyr fixed, at +3): 0.343
- relative phosphorylation (pTyr fixed, at +4): 1.03
- relative phosphorylation (pTyr fixed, at +5): 0.309
- relative phosphorylation (pTyr fixed, at -1): 3.63
- relative phosphorylation (pTyr fixed, at -2): 1.06
- relative phosphorylation (pTyr fixed, at -3): 1.14
- relative phosphorylation (pTyr fixed, at -4): 1.17
- relative phosphorylation (pTyr fixed, at -5): 1.06
